This is an account of results in paper PMC12884772, “Macrophagic Sclerostin Loop2‐ApoER2 Interaction Required by Sclerostin for Cardiovascular Protective Action” (Advanced Science, 2025).

pKd: −log10 of the molar value.

Experiment [1] concerns the target His-sclerostin loop2. The experiment is described as follows: BLI; Octet RED96e; Figure 6B, 'ApoER2 to sclerostin' and 'to sclerostin loop2'; the methods tell of biotin-ApoER2 loaded on streptavidin biosensors, PBS with 0.02% Tween 20; partner loaded in this panel not given.
In experiment [2] the target is full-length His-sclerostin (not stated (recombinant human and mouse sclerostin used in the paper)) (UniProt Q99P68). The description is as above.
full-length His-sclerostin (not stated (recombinant human and mouse sclerostin used in the paper)), sequence (Q99P68 24-211): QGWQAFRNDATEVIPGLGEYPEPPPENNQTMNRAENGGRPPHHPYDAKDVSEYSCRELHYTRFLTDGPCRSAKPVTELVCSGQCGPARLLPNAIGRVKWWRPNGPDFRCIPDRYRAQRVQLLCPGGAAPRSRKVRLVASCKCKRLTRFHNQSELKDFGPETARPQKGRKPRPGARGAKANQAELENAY
Experiment [3] deals with ApoER2 protein (R&D, 3520-AR) (UniProt Q14114). The experiment is described as follows: BLI; Octet RED96e; Figure S6B, 'sclerostin to ApoER2'; partner loaded in this panel not given. A general note: BLI is a label-free optical method that tracks binding on a fibre tip over time.
ApoER2 protein (R&D, 3520-AR), sequence (Q14114 42-826): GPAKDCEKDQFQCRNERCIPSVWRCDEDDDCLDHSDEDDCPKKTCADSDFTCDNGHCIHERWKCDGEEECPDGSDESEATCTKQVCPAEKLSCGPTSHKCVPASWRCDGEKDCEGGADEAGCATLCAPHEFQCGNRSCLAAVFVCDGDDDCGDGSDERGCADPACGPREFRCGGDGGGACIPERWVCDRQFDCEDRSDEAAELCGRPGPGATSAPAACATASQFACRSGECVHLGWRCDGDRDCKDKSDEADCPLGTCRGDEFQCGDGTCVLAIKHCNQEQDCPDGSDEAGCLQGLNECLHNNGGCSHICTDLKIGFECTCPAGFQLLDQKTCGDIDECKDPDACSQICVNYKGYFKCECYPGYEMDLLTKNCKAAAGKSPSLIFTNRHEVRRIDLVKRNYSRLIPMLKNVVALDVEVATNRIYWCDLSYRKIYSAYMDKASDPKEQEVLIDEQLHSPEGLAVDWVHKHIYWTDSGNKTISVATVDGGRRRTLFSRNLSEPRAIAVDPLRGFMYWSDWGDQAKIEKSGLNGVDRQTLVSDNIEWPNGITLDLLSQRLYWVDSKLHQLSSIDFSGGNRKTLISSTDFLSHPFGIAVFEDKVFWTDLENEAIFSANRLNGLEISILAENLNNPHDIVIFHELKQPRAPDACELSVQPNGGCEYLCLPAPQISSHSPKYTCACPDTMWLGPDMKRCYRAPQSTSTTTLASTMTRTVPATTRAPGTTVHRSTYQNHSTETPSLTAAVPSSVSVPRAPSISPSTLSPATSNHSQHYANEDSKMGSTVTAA

full-length His-sclerostin, sequence (Q99P68 24-211): as the sequence (Q99P68 24-211) above

As for “ApoER2 protein (R&D, 3520-AR) (from UniProt Q14114 42-826) (receptor)”, the pKd (as a rule, −log10 of the Kd, conventionally taken in molar units) is 7.64 in experiment [1] and 8.42 in experiment [2].
For “full-length His-sclerostin (from UniProt Q99P68 24-211) (natural protein)”, the negative-log Kd (pKd) in experiment [3] is 8.68.
